# No end group written: not given here. *: point of attachment. FITC = O=C1OC2(c3ccc(O)cc3Oc3cc(O)ccc32)c2ccc(NC(=S)*)cc21
# Assays:
# [1] = target: T1, 6xHis-tagged LC8 (DYNLL2) (human, UniProt Q96FJ2 1-89); assay: fluorescence polarisation
# [2] = target: T1, 6xHis-tagged LC8 (DYNLL2); assay: SPR
# Target sequence in this assay (Q96FJ2 whole entry): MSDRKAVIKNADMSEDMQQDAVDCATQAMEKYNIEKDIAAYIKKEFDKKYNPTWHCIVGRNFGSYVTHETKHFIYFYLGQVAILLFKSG
Binder,Kd [1],Kd [2],binding result [1]
KESCNMETQTS [OFD1 peptide (KESCNMETQTS)],12.8 µM,12.5 ± 1.3 µM,
{FITC}-TSQEDKATQTL [FITC-labeled BMF peptide (FITC-TSQEDKATQTL)],,,binds
